This is an account of results in PMC11348035 (Proceedings of the National Academy of Sciences of the …, 2024).

One assay concerns the target UAF1 (UniProt Q8TAF3). The assay can be described thus: FLAG co-immunoprecipitation, western blot. To be noted: reference: wild type; sites S306.
The target of assay [1] is UAF1 (USP1-associated factor 1), purified recombinant (UniProt Q8TAF3 1-677). In words: pull-down.
Sequence of UAF1 (USP1-associated factor 1), purified recombinant (Q8TAF3 whole entry): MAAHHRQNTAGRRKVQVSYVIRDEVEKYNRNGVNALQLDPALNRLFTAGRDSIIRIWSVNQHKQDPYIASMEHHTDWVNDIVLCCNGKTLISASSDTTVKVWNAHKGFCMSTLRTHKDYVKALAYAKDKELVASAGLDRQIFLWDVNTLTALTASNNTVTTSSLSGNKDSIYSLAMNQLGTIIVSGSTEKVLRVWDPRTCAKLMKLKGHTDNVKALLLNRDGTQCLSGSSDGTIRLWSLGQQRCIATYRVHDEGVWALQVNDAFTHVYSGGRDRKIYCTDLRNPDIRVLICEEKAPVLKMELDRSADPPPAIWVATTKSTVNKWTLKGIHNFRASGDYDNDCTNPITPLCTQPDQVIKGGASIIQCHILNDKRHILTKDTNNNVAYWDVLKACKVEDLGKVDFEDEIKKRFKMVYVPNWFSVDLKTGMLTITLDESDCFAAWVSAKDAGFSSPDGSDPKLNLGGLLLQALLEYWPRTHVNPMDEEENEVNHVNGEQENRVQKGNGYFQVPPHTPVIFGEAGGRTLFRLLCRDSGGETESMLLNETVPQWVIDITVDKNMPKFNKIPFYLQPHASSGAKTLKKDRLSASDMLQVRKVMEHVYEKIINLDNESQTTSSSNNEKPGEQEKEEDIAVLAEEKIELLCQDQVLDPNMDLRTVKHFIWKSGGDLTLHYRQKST

For ATAD5 (from UniProt Q96QE3) S306A, the “binding against the reference” value with UAF1 is “weaker”.

B1: ATAD5 (1 to 500, S306E), the 'wild-type' ATAD5 (1 to 500) of the in vitro binding studies (domain or fragment, human, UniProt Q96QE3 1-500, looked up)
chain: MVGVLAMAAAAAPPPVKDCEIEPCKKRKKDDDTSTCKTITKYLSPLGKTRDRVFAPPKPSNILDYFRKTSPTNEKTQLGKECKIKSPESVPVDSNKDCTTPLEMFSNVEFKKKRKRVNLSHQLNNIKTENEAPIEISSDDSKEDYSLNNDFVESSTSVLRYKKQVEVLAENIQDTKSQPNTMTSLQNSKKVNPKQGTTKNDFKKLRKRKCRDVVDLSESLPLAEELNLLKKDGKDTKQMENTTSHANSRDNVTEAAQLNDSIITVSYEEFLKSHKENKVEEIPDSTMSICVPSETVDEIVKSGYIEESENSEISQQVRFKTVTVLAQVHPIPPKKTGKIPRIFLKQKQFEMENSLSDPENEQTVQKRKSNVVIQEEELELAVLEAGSSEAVKPKCTLEERQQFMKAFRQPASDALKNGVKKSSDKQKDLNEKCLYEVGRDDNSKKIMENSGIQMVSKNGNLQLHTDKGSFLKEKNKKLKKKNKKTLDTGAIPGKNREGNT
Turning to B1, the binding result in assay [1] is on record as “binds”.
